Data from patent US20080026996A1, “Selective Vpac2 Receptor Reptide Agonists” (ELI LILLY AND COMPANY, priority 2004, published 2008).
Where no end group is shown, it is not given here. [ ]: non-standard residue; d: D form. The star is where a group is joined. Orn = NCCC[C@H](N)C(=O)O; Hexanoyl = CCCCCC(=O)*; Aib = CC(C)(N)C(=O)O

Legend:
Experiment in all cases: cell-based or functional assay
rat VPAC1 receptor = target: T1, rat VPAC1 receptor (rat, UniProt P30083 31-459)
T1 sequence (looked up): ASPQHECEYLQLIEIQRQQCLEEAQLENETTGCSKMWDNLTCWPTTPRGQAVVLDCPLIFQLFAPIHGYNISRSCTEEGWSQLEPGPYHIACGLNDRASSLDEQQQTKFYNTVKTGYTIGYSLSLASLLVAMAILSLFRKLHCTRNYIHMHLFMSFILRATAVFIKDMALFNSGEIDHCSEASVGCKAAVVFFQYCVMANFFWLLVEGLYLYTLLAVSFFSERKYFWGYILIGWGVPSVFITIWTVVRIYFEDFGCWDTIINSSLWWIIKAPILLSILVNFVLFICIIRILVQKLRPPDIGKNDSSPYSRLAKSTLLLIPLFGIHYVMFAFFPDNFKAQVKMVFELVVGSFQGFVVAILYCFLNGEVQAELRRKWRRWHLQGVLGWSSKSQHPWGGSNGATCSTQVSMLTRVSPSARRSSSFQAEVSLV

human VPAC2 receptor = target: T2, human VPAC2 receptor (human, UniProt P41587 24-438)
T2 sequence (looked up): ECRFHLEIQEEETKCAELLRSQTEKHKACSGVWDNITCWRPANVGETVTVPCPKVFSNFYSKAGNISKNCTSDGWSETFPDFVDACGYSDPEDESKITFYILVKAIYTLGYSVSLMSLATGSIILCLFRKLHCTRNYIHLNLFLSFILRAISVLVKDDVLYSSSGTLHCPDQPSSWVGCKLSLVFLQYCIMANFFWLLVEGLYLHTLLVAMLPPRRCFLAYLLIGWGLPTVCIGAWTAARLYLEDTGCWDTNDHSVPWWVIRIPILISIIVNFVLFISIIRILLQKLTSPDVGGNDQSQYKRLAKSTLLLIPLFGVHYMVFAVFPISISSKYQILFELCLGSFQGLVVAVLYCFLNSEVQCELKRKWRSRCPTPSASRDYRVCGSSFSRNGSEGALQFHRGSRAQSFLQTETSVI

human PAC1 receptor = target: T3, human PAC1 receptor (human, UniProt P41586 21-468)
T3 sequence (looked up): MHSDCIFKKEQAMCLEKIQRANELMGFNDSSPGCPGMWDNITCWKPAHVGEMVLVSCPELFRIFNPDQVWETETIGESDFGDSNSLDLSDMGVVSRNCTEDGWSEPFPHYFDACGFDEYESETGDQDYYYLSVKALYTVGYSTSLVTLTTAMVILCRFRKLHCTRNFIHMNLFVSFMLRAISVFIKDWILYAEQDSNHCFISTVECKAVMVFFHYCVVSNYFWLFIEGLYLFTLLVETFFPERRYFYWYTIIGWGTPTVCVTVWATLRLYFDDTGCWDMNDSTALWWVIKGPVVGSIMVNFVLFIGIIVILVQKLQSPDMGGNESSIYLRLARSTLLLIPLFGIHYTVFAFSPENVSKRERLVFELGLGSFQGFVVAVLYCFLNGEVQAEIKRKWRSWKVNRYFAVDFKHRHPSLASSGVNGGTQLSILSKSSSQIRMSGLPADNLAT

human VPAC1 receptor = target: T4, human VPAC1 receptor (human, UniProt P32241 31-457)
T4 sequence (looked up): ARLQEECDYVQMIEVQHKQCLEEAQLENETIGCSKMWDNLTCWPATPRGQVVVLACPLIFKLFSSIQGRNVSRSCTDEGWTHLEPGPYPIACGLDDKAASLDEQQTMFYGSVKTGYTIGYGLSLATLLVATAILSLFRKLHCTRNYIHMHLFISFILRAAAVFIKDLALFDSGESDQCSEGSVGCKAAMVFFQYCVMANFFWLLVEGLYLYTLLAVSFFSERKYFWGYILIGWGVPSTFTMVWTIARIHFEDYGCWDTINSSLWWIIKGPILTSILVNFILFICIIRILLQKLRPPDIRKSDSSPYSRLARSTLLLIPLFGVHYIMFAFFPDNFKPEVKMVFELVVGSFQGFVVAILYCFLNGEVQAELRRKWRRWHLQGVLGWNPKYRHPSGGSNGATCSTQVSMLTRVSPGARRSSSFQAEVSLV

## Hexanoyl-HSDAVFTDNYTRLRKQVAAKKYLQTIKNKRYGGPSSGAPPPS [P115]
Rat VPAC1 receptor
  EC50 cAMP, DiscoveRx: 0.95 nM
Human VPAC2 receptor
  EC50 cAMP, Alpha Screen: 0.2 nM

## Hexanoyl-HSDAVFTDNYTRLRKQVAAKKYLQSIKNKRYGGPSSGAPPPC [P120]
Rat VPAC1 receptor
  EC50 cAMP, DiscoveRx: 0.42 nM

## Hexanoyl-HSDAVFTDNYTRLRKQVAAKKYLQSIKQKGGPSSGAPPPS [P270]
Rat VPAC1 receptor
  EC50 cAMP, DiscoveRx: 0.67 nM
Human VPAC2 receptor
  EC50 cAMP, Alpha Screen: 0.13 nM

## Hexanoyl-HSDAVFTDNYTRLR[Aib]QVAA[Aib][Orn]YLQSIKNKRYGGPSSGAPPPS (ends and bridges not checked) [P342]
Rat VPAC1 receptor
  EC50 cAMP, DiscoveRx: 2.39 nM
Human VPAC2 receptor
  EC50 cAMP, Alpha Screen: 0.21 nM

## Hexanoyl-HSDAVFTDNYTRLQKQVAAK[Aib]YLQSIKNKRYGGPSSGAPPPS (ends and bridges not checked) [P251]
Rat VPAC1 receptor
  EC50 cAMP, DiscoveRx: 212 nM
Human VPAC2 receptor
  EC50 cAMP, Alpha Screen: 0.92 nM

## Hexanoyl-HSDAVFTDNYTRL[Aib]KQLAAK[Aib]YLQSIKNKRYGGPSSGAPPPS (ends and bridges not checked) [P241]
Rat VPAC1 receptor
  EC50 cAMP, DiscoveRx: 61.1 nM
Human VPAC2 receptor
  EC50 cAMP, Alpha Screen: 2.17 nM

## MHSDAVFTDNYTRLLAKLALQKYLQSIKNKRYGGPSSGAPPPS (N-terminal methionine added (M-)) [P140]
Rat VPAC1 receptor
  EC50 cAMP, DiscoveRx: 5.81 nM
Human VPAC2 receptor
  EC50 cAMP, Alpha Screen: 0.07 nM

## HSDAVFTDNYTXLRXQVAAXKYLQSIKNKRYGGPSSGAPPPS (N-terminal hexanoyl (C6); Orn at 12; Aib at 15, 20) [P344]
Rat VPAC1 receptor
  EC50 cAMP, DiscoveRx: 1.56 nM
Human VPAC2 receptor
  EC50 cAMP, Alpha Screen: 0.13 nM

## HSDAVFTDNYTRLRKQVAAKKYLQSIKNNRYGGPSSGAPPPS [P75]
Human VPAC2 receptor
  EC50 cAMP, DiscoveRx: 3.44 nM
Human PAC1 receptor
  EC50 cAMP, DiscoveRx: 13.4 nM
Human VPAC1 receptor
  EC50 cAMP, DiscoveRx: 0.65 nM

## HSDAFFTDNYTRLRKQVAAKKYLQSIKNKRYGGPSSGAPPPS [P58]
Human VPAC2 receptor
  EC50 cAMP, DiscoveRx: 11.8 nM
Human PAC1 receptor
  EC50 cAMP, DiscoveRx: 35.6 nM
Human VPAC1 receptor
  EC50 cAMP, DiscoveRx: 44.1 nM

## HSDAVFTDNYTRLRKQVAAKKYLQSIQNKRYGGPSSGAPPPS [P74]
Human VPAC2 receptor
  EC50 cAMP, DiscoveRx: 2.72 nM
Human PAC1 receptor
  EC50 cAMP, DiscoveRx: 145 nM
Human VPAC1 receptor
  EC50 cAMP, DiscoveRx: 0.4 nM

## HSDAVVTDNYTRLRKQVAAKKYLQSIKNKRYGGPSSGAPPPS [P66]
Human VPAC2 receptor
  EC50 cAMP, DiscoveRx: > 1000 nM
Human PAC1 receptor
  EC50 cAMP, DiscoveRx: 1.4 nM
Human VPAC1 receptor
  EC50 cAMP, DiscoveRx: < 1000 nM

## HSDAYFTDNYTRLRKQVAAKKYLQSIKNKRYGGPSSGAPPPS [P70]
Human VPAC2 receptor
  EC50 cAMP, DiscoveRx: 4.89 nM
Human PAC1 receptor
  EC50 cAMP, DiscoveRx: 20.7 nM
Human VPAC1 receptor
  EC50 cAMP, DiscoveRx: 27.4 nM

## HSDAVYTDNYTRLRKQVAAKKYLQSIKNKRYGGPSSGAPPPS [P68]
Human VPAC2 receptor
  EC50 cAMP, DiscoveRx: 20.3 nM
Human PAC1 receptor
  EC50 cAMP, DiscoveRx: 94.7 nM
Human VPAC1 receptor
  EC50 cAMP, DiscoveRx: 41 nM

## HSDAVLTDNYTRLRKQVAAKKYLQSIKNKRYGGPSSGAPPPS [P64]
Human VPAC2 receptor
  EC50 cAMP, DiscoveRx: > 1000 nM
Human PAC1 receptor
  EC50 cAMP, DiscoveRx: 0.1 nM
Human VPAC1 receptor
  EC50 cAMP, DiscoveRx: 221 nM

## HSDAVITDNYTRLRKQVAAKKYLQSIKNKRYGGPSSGAPPPS [P63]
Human VPAC2 receptor
  EC50 cAMP, DiscoveRx: > 1000 nM
Human PAC1 receptor
  EC50 cAMP, DiscoveRx: 0.9 nM
Human VPAC1 receptor
  EC50 cAMP, DiscoveRx: > 1000 nM

## HSDATFTDNYTRLRKQVAAKKYLQSIKNKRYGGPSSGAPPPS [P62]
Human VPAC2 receptor
  EC50 cAMP, DiscoveRx: 13.2 nM
Human PAC1 receptor
  EC50 cAMP, DiscoveRx: 137 nM
Human VPAC1 receptor
  EC50 cAMP, DiscoveRx: 17 nM

## HSDALFTDNYTRLRKQVAAKKYLQSIKNKRYGGPSSGAPPPS (not fully specified) [P61]
Human VPAC2 receptor
  EC50 cAMP, DiscoveRx: 2.14 nM
Human PAC1 receptor
  EC50 cAMP, DiscoveRx: 11.6 nM
Human VPAC1 receptor
  EC50 cAMP, DiscoveRx: 2.58 nM

## HSDAVTTDNYTRLRKQVAAKKYLQSIKNKRYGGPSSGAPPPS [P65]
Human VPAC2 receptor
  EC50 cAMP, DiscoveRx: > 1000 nM
Human PAC1 receptor
  EC50 cAMP, DiscoveRx: 0.7 nM
Human VPAC1 receptor
  EC50 cAMP, DiscoveRx: > 1000 nM

## HSDAVFTDNYTRLRKQVAAKKYLQSIKNKIYGGPSSGAPPPS [P76]
Human VPAC2 receptor
  EC50 cAMP, DiscoveRx: 3.88 nM
Human PAC1 receptor
  EC50 cAMP, DiscoveRx: 15.9 nM
Human VPAC1 receptor
  EC50 cAMP, DiscoveRx: 0.8 nM

## HSDAVFTDNYTRLRKQVAAKKYLQSIKNKRYGGPSSGAPPPS [P6]
Human VPAC2 receptor
  EC50 cAMP, Alpha Screen: 3.19 nM
  EC50 cAMP, DiscoveRx: 2.56 nM
Human PAC1 receptor
  EC50 cAMP, DiscoveRx: > 40 nM
Human VPAC1 receptor
  EC50 cAMP, DiscoveRx: 5 nM

## HSDAWFTDNYTRLRKQVAAKKYLQSIKNKRYGGPSSGAPPPS [P69]
Human VPAC2 receptor
  EC50 cAMP, DiscoveRx: 6.39 nM
Human PAC1 receptor
  EC50 cAMP, DiscoveRx: 104 nM
Human VPAC1 receptor
  EC50 cAMP, DiscoveRx: 8.48 nM

## Hexanoyl-HSDAVFTDNYTRLRKQVAAKKYLQSIKNKKGGPSSGAPPPS [P121]
Rat VPAC1 receptor
  EC50 cAMP, DiscoveRx: 0.66 nM
Human VPAC2 receptor
  EC50 cAMP, Alpha Screen: 0.1 nM

## Hexanoyl-HSDAVFTDNYTR[Aib]R[Aib]QVAA[Aib]KYLQSIKNKRYGGPSSGAPPPS (ends and bridges not checked) [P346]
Rat VPAC1 receptor
  EC50 cAMP, DiscoveRx: 3.02 nM
Human VPAC2 receptor
  EC50 cAMP, Alpha Screen: 0.23 nM

## Hexanoyl-HSDAVFTDNYTRLR[Aib]QLAA[Aib]KYLQSIKNKRYGGPSSGAPPPS (ends and bridges not checked) [P291]
Rat VPAC1 receptor
  EC50 cAMP, DiscoveRx: 1.12 nM
Human VPAC2 receptor
  EC50 cAMP, Alpha Screen: 0.36 nM

## Hexanoyl-HSDAVFTDNYTRLRKQVAAKKYLQSIKNGGPSSGAPPPS [P154]
Rat VPAC1 receptor
  EC50 cAMP, DiscoveRx: 0.85 nM
Human VPAC2 receptor
  EC50 cAMP, Alpha Screen: 0.18 nM

## Hexanoyl-HSDAVFTDNYTRLRKQMAAQKYLNQLKKGGPSSGAPPPS [P143]
Rat VPAC1 receptor
  EC50 cAMP, DiscoveRx: 3.81 nM
Human VPAC2 receptor
  EC50 cAMP, Alpha Screen: 0.1 nM
